1 molecule from patent CN113929783A (FUZHOU MAIXIN BIOTECHNOLOGY DEV CO LTD, dated 2022) can be followed below.

The target of this experiment is T1, 人CD99蛋白 (组织切片中表达) (human, UniProt P14209 23-185).
T1 construct: whole, on cells
T1 sequence (looked up): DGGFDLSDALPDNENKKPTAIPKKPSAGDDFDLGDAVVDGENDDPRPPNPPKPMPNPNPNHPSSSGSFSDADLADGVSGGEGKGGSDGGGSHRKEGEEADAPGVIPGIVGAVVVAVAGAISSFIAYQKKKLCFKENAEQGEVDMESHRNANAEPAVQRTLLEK
Briefly: IHC on 8 ovarian granulosa cell tumours and 8 primitive neuroectodermal tumours.

B1: 抗CD99蛋白单克隆抗体(10D2A10F9) (antibody, V domains shown)
VH: EVQLQQSGAELVKPGASVKLSCTASGFNIKDTYMHWVKQRPEQGLEWIGRIDPANGNTKYDPKFQGKATITADTSSNTAYLQLSSLTSEDTAVYYCGRRGFAYWGQGTLVTVSA
VL: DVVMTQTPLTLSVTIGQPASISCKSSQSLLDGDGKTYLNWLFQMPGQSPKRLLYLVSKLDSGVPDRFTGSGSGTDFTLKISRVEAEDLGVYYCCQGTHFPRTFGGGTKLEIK
notes: also called CGMCC NO.22316
Take B1: the binding result is “binds”.
